Experimental data published in the supplement of paper PMC10126150.
± gives the standard deviation of the averaged measurements.

Tested on: ATP
Test: switch fluorescence ratio, 500 uM ATP over buffer (Cy3 cluster intensity, sum of 5 cycles each) (fold (ratio)); higher = stronger signal-on switching upon ATP binding; sequences stand for … in TCGTCGGCAGCGTCAGATGTGTATAAGAGACAGTTTTTTTTTTTTTTTTTTTTTTTTT…TC
Details: aptamer strand: ATP DNA aptamer (quencher-CACCTGGGGGAGTATTGCGGAGGAAGG + anchor), 100 nM annealed; ATP concentration: 500 uM
How it was run: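 Per cluster, summed Cy3 intensity from the target cycles was divided by that from the buffer cycles to give the fluorescence ratio, then averaged per switch-domain sequence. Clusters outside 100-1000 RFU were excluded. The Cy3-labelled switching-strand clusters, on a modified Illumina MiSeq flow-cell, were annealed to 100 nM quencher-labelled ATP aptamer and imaged in selection buffer, then after 15 min with 500 uM ATP at 22 °C, for five cycles with NaOH stripping and re-annealing between them.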
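Note: ATP exposure 15 min at 22 °C before imaging.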

Sequence	switch fluorescence ratio
TCCGGAGGAC	1.86 ± 0.03
TCCGGAGGGT	1.05 ± 0.06
TCCGGATCGG	1.03 ± 0.012
TCCGGCACGT	1.01 ± 0.019
TCCGGCCAGC	1.28 ± 0.025
TCCGGGATGG	1.33 ± 0.39
TCCGGGGAGC	1.06 ± 0.015
TCCGGGGTTG	0.988 ± 0.046
TCCGGGTGTA	1.14 ± 0.22
TCCGGGTTGG	1.03 ± 0.013
TCCGGTCGAT	1.127 ± 0.0072
TCCGGTGACG	0.968 ± 0.033
TCCGGTTTCG	1.02 ± 0.039
TCCGTTAAGA	1.083 ± 0.0019
TCCGTTATTT	1.021 ± 0.0092
TCCGTTGGTG	1.01 ± 0.072
TCCTAAAAGT	1.01 ± 0.021
TCCTAAACGT	1.072 ± 0.0029
TCCTAGGTTT	1 ± 0.015
TCCTATATTG	0.986 ± 0.0023
TCCTGAGTTT	0.991 ± 0.047
TCCTGATTCT	1.03 ± 0.033
TCCTGATTGT	0.988 ± 0.022
TCCTGGGTTG	0.99 ± 0.066
TCCTTAACTT	1.02 ± 0.061
TCCTTCACGA	2.067 ± 0.017

Sequence	switch fluorescence ratio
TCCTTCCGGG	2.16 ± 0.19
TCCTTGAGTG	1.03 ± 0.031
TCCTTGATAT	0.995 ± 0.04
TCCTTGGGTT	1.016 ± 0.0099
TCCTTGTCTT	1.01 ± 0.016
TCCTTTATAC	3.09 ± 0.71
TCCTTTTATG	0.98329 ± 2.8e-05
TCCTTTTTTT	1.01 ± 0.033
TCGAAACTGG	1.09 ± 0.11
TCGAAGTGAA	1.09 ± 0.018
TCGAAGTTTT	0.9996 ± 0.0089
TCGAATATGT	0.986 ± 0.025
TCGACCGGGG	1.039 ± 0.0098
TCGACGGAGT	1.114 ± 0.00049
TCGACTGGGG	1 ± 0.034
TCGAGAATGG	0.952 ± 0.017
TCGAGAGAAA	1.01 ± 0.016
TCGAGAGGGT	0.996 ± 0.015
TCGAGAGGTG	1.1 ± 0.1
TCGAGATAGC	1.03 ± 0.011
TCGAGATATG	0.978 ± 0.09
TCGAGCACTG	1.13 ± 0.065
TCGAGCAGCT	1.1 ± 0.032
TCGAGCCCCA	1.04 ± 0.087
TCGAGGAATT	1.02 ± 0.02
TCGAGGGAGT	1.02 ± 0.028

Sequence	switch fluorescence ratio
TCGAGGTAGA	1.01 ± 0.05
TCGAGTCATC	0.965 ± 0.019
TCGAGTGGAG	1.0319 ± 0.00064
TCGATAGACG	1.02 ± 0.018
TCGATCTTTT	1.24 ± 0.4
TCGATGCTGG	0.982 ± 0.084
TCGATTCGAT	1.35 ± 0.57
TCGATTTCTT	1.1 ± 0.077
TCGCAAAATT	2.15 ± 1.3
TCGCAGCAGG	2.82 ± 0.097
TCGCGACTTG	0.9946 ± 0.0054
TCGCGAGGAG	1.04 ± 0.014
TCGCGAGGGG	0.997 ± 0.025
TCGCGCGGTG	0.978 ± 0.021
TCGCGGGAAA	1.01 ± 0.025
TCGCTGGGAT	1.2 ± 0.27
TCGCTGTAGG	1.1 ± 0.059
TCGGAATCAA	1.127 ± 0.0071
TCGGACTCTT	1.01 ± 0.024
TCGGAGAGGA	0.986 ± 0.016
TCGGAGATAT	1 ± 0.045
TCGGAGGAAA	0.999 ± 0.047
TCGGAGGTCA	0.956 ± 0.03
TCGGATGGTT	0.978 ± 0.024
TCGGCACCGG	1.02 ± 0.024
TCGGCATGGG	1.11 ± 0.11

Sequence	switch fluorescence ratio
TCGGCATTAA	1.37 ± 0.1
TCGGCATTTT	1.027 ± 0.0014
TCGGCCCAGG	3.6 ± 1.4
TCGGCCGGGG	1.02 ± 0.015
TCGGCGAAAG	1.02 ± 0.023
TCGGCGACAT	1.005 ± 0.0072
TCGGCGAGGG	0.977 ± 0.021
TCGGCGTCTT	0.977 ± 0.04
TCGGCTATG	1.12 ± 0.15
TCGGCTATTT	1.03 ± 0.019
TCGGCTTAGG	0.987 ± 0.048
TCGGGAAATT	1.012 ± 0.0019
TCGGGACGGG	1.01 ± 0.013
TCGGGAGAGC	1.04 ± 0.038
TCGGGAGATT	1.02 ± 0.029
TCGGGATCGG	1 ± 0.015
TCGGGCAGCG	0.989 ± 0.058
TCGGGCAGGG	1.003 ± 0.0044
TCGGGGATCT	1.033 ± 0.0073
TCGGGGCCGT	0.971 ± 0.059
TCGGGGCCTC	1.04 ± 0.024
TCGGGGCTCT	1.07 ± 0.12
TCGGGGCTTT	0.982 ± 0.022
TCGGGGGAAG	1.01 ± 0.038
TCGGGGGAGC	0.984 ± 0.025
TCGGGGGGAA	1.06 ± 0.057

Sequence	switch fluorescence ratio
TCGGGGGGTT	0.998 ± 0.034
TCGGGGGTAA	1.01 ± 0.033
TCGGGGGTCG	0.954 ± 0.097
TCGGGGTCTG	0.9872 ± 0.0066
TCGGGGTGCA	0.9732 ± 0.0086
TCGGGGTGTG	0.988 ± 0.031
TCGGGGTTCG	0.992 ± 0.03
TCGGGGTTGG	0.978 ± 0.029
TCGGGTAAAA	1.01 ± 0.028
TCGGGTAGTG	1.01 ± 0.026
TCGGGTATAT	1 ± 0.044
TCGGGTCGTA	1.02 ± 0.019
TCGGGTGTGA	1.029 ± 0.0015
TCGGGTGTTG	1.03 ± 0.048
TCGGGTTGTG	0.959 ± 0.031
TCGGTAGCAG	1.092 ± 0.01
TCGGTCCGAT	0.9997 ± 0.005
TCGGTGAATT	1.01 ± 0.011
TCGGTGAGGG	1.02 ± 0.07
TCGGTGCCTG	1.01 ± 0.36
TCGGTGGTAA	0.9823 ± 0.0065
TCGGTTTTGT	0.983 ± 0.026
TCGTAAAGGA	1.03 ± 0.043
TCGTACTGAC	1.03 ± 0.044
TCGTACTGGT	0.99 ± 0.068
TCGTAGACGT	1.01 ± 0.011

Sequence	switch fluorescence ratio
TCGTAGGAGG	1.07 ± 0.024
TCGTAGGATG	0.975 ± 0.037
TCGTAGGTAA	1.1 ± 0.12
TCGTAGTATT	0.993 ± 0.021
TCGTATCATT	0.976 ± 0.02
TCGTCAGCTG	1.02 ± 0.061
TCGTCTCTTT	0.986 ± 0.018
TCGTGAACCC	1.01 ± 0.023
TCGTGAAGAG	0.987 ± 0.012
TCGTGAAGCG	1.04 ± 0.025
TCGTGATGTA	0.974 ± 0.014
TCGTGCATGG	1.046 ± 0.008
TCGTGCGCTG	0.997 ± 0.079
TCGTGCGGGG	0.969 ± 0.016
TCGTGCTGGG	1 ± 0.067
TCGTGGACGC	0.995 ± 0.031
TCGTGGATGT	1 ± 0.028
TCGTGGGGTG	0.999 ± 0.042
TCGTGGGTGC	1.01 ± 0.023
TCGTGGTTTA	0.994 ± 0.021
TCGTGGTTTC	0.9823 ± 0.0069
TCGTGTGACC	1.009 ± 0.0093
TCGTGTTCTT	0.95 ± 0.028
